# ± gives the uncertainty stated by the source.
# Experiment: self-splicing fitness, log relative to wild type (ln ratio); higher = more splicing; Tetrahymena group I intron in knt gene, E. coli kanamycin selection, DiMSum; sequences stand for … in CUCUCU…GGAGGGAAAAGUUAUCAGGCAUGCACCUGGUAGCUAGUCUUUAAACCAAUAGAUUGCAUCGGUUUAAAAGGCAAGACCGUCAAAUUGCGGGAAAGGGGUCAACAGCCGUUCAGUACCAAGUCUCAGGGGAAACUUUGAGAUGGCCUUGCAAAGGGUAUGGUAAUAAGCUGACGGACAUGGUCCUAACCACGCAGCCAAGUCCUAAGUCAACAGAUCUUCUGUUGAUAUGGAUGCAGUUCACAGACUAAAUGUCGGUCGGGGAAGAUGUAUUCUUCUCAUAAGAUAUAGUCGGACCUCUCCUUAAUGGGAGCUAGCGGAUGAAGUGAUGCAACACUGGAGCCGCUGGGAACUAAUUUGUAUGCGAAAGUAUAUUGAUUAGUUUUGGAGUACUCGUGGUCG
# Method in brief: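 Pooled colonies went to amplicon sequencing on an Illumina HiSeq 2500 after six replicate transformations. The plates were LB agar with 100 μg/mL carbenicillin, 50 μM IPTG and 0.2% rhamnose, with or without 25 μg/mL kanamycin, incubated overnight at 37°C or 30°C. The E. coli BL21(DE3) library had all eight P1ex-region intron nucleotides randomised, the intron placed in the knt kanamycin-resistance gene on pET-22b(+). DiMSum fitness is the error-weighted combination of replicate fold changes, kanamycin against none, normalised to wild type.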
Sequence,self-splicing fitness (ln) (30 °C),self-splicing fitness (ln) (37 °C)
UUUAAGCAAUAUUACGGCGG,-0.0601 ± 0.13,-0.212 ± 0.18
UUUAAGCAAUAUUACGGGAU,-3.4 ± 0.21,-1.95 ± 0.2
UUUAAGCAAUAUUACGGGGG,-2.49 ± 0.22,-2.04 ± 0.18
UUUAAGCAAUAUUACGGUCC,-2.33 ± 0.3,-1.25 ± 0.25
UUUAAGCAAUAUUACGGUGG,-0.86 ± 0.087,-0.646 ± 0.12
UUUAAGCAAUAUUACGGUUG,-2.33 ± 0.13,-1.76 ± 0.14
UUUAAGCAAUAUUACGGUUU,-2.53 ± 0.28,-1.51 ± 0.22
UUUAAGCAAUAUUACGUACC,-2.05 ± 0.39,–
UUUAAGCAAUAUUACGUCGU,-2.14 ± 0.21,-2.07 ± 0.32
UUUAAGCAAUAUUACGUCUC,-1.11 ± 0.29,-1.83 ± 0.39
UUUAAGCAAUAUUACGUUAG,-1.75 ± 0.13,-0.995 ± 0.14
UUUCAGCAAUAUUACGAACC,–,-1.08 ± 0.38
UUUCAGCAAUAUUACGAGUG,-0.489 ± 0.094,-0.205 ± 0.11
UUUCAGCAAUAUUACGAUGG,-2.15 ± 0.14,-0.745 ± 0.16
UUUCAGCAAUAUUACGCAUU,-1.93 ± 0.14,-1.08 ± 0.11
UUUCAGCAAUAUUACGCCCU,-0.619 ± 0.22,-0.611 ± 0.29
UUUCAGCAAUAUUACGCGCG,-0.107 ± 0.18,-1.01 ± 0.22
UUUCAGCAAUAUUACGCGUA,-0.663 ± 0.086,-0.289 ± 0.088
UUUCAGCAAUAUUACGCGUG,-1.02 ± 0.082,-0.508 ± 0.094
UUUCAGCAAUAUUACGCUAU,-2.73 ± 0.17,-1.81 ± 0.14
UUUCAGCAAUAUUACGCUGC,-2.48 ± 0.31,-1.14 ± 0.35
UUUCAGCAAUAUUACGCUUG,-1.3 ± 0.11,-0.507 ± 0.11
UUUCAGCAAUAUUACGGACC,-1.2 ± 0.4,–
UUUCAGCAAUAUUACGGAGG,-1.53 ± 0.17,-0.401 ± 0.18
UUUCAGCAAUAUUACGGCCU,-3.87 ± 0.47,-1.33 ± 0.25

Sequence,self-splicing fitness (ln) (30 °C),self-splicing fitness (ln) (37 °C)
UUUCAGCAAUAUUACGGGCA,-0.321 ± 0.076,-0.0917 ± 0.085
UUUCAGCAAUAUUACGGUCA,0.101 ± 0.12,0.222 ± 0.13
UUUCAGCAAUAUUACGGUGG,-1.94 ± 0.067,-0.673 ± 0.075
UUUCAGCAAUAUUACGGUUC,-1.67 ± 0.17,-1.82 ± 0.27
UUUCAGCAAUAUUACGUGAU,-2.58 ± 0.13,-1.8 ± 0.18
UUUCAGCAAUAUUACGUGGA,-3.32 ± 0.22,-2.3 ± 0.35
UUUCAGCAAUAUUACGUUAU,-2.94 ± 0.2,-1.47 ± 0.14
UUUCAGCAAUAUUACGUUGC,-4.04 ± 0.29,-2.5 ± 0.24
UUUGAGCAAUAUUACGACAA,-1.26 ± 0.16,-0.94 ± 0.17
UUUGAGCAAUAUUACGACCU,-2.7 ± 0.26,-1.02 ± 0.34
UUUGAGCAAUAUUACGAGUG,-3.74 ± 0.18,-2.88 ± 0.2
UUUGAGCAAUAUUACGAUGC,–,-1.81 ± 0.4
UUUGAGCAAUAUUACGCAUC,-3.03 ± 0.28,-2.39 ± 0.38
UUUGAGCAAUAUUACGCCAG,-2.78 ± 0.36,-2.12 ± 0.47
UUUGAGCAAUAUUACGCGGA,-3.43 ± 0.35,-1.28 ± 0.17
UUUGAGCAAUAUUACGGAGA,–,1.09 ± 0.29
UUUGAGCAAUAUUACGGAGG,-3.18 ± 0.32,-2.33 ± 0.46
UUUGAGCAAUAUUACGGCGU,-3.7 ± 0.26,-1.9 ± 0.2
UUUGAGCAAUAUUACGGGAC,-3.43 ± 0.34,-2.12 ± 0.27
UUUGAGCAAUAUUACGGGGG,-1.96 ± 0.38,–
UUUGAGCAAUAUUACGGGUA,-2.8 ± 0.46,–
UUUGAGCAAUAUUACGGGUG,-4.1 ± 0.3,-2.22 ± 0.21
UUUGAGCAAUAUUACGUAGA,-1.7 ± 0.22,-0.802 ± 0.24
UUUGAGCAAUAUUACGUCCC,-2.9 ± 0.22,-2.15 ± 0.33
UUUGAGCAAUAUUACGUCUC,-3.52 ± 0.29,-2.7 ± 0.33

# Source: the supplement of paper PMC7877785
